Reference: the RNAGym collection of RNA variant scans (doi:10.7554/elife.80360)

B1: Hammerhead Ribozyme (parent)
chain: ACCGGAUGUGCUUUCCGGUCUGAUGAGUCCGUGAGGACGAAACAG

Variants of: B1
Assay: self-cleavage, relative activity (ratio to wild type); higher = more cleavage; co-transcriptional

Question: For ACCGGAUCUGCUUUCCGGUCUGAUGAGUCCGUGUGGACGAAACAG [G8C A34U], which self-cleavage is on record?
Answer: 0.988

Question: With ACCGGAUGUGCUUUCCGGUCUGGUGAGUCCGUGAGGACGCAACAG [A23G A40C] as the variant, how does the self-cleavage read?
Answer: 0.355

Question: Which self-cleavage does the source give for ACCGGAUGUGCUUUCCAGUCUGAAGAGUCCGUGAGGACGAAACAG [G17A U24A] here?
Answer: 0.704

Question: With AACGGAUGUGCUUUCCGGUCUGAUGAGUCCGUGAGGACAAAACAG [C2A G39A] as the variant, how does the self-cleavage read?
Answer: 0.319

Question: For ACGGGAUGUGCUUUCCGAUCUGAUGAGUCCGUGAGGACGAAACAG [C3G G18A], which self-cleavage is on record?
Answer: 0.323

Question: Which self-cleavage does the source give for AUCGGAUGUGCUUUCCGGUCAGAUGAGUCCGUGAGGACGAAACAG [C2U U21A] here?
Answer: 0.962

Question: With ACCGGAUGUGCAUUCCGGUCUGAUGAGUCCGCGAGGACGAAACAG [U12A U32C] as the variant, how does the self-cleavage read?
Answer: 1.14

Question: For ACCGGAUGUGCUUUCCGCUCUGAUGAUUCCGUGAGGACGAAACAG [G18C G27U], which self-cleavage is on record?
Answer: 0.298

Question: Which self-cleavage does the source give for ACAGGAUGUGCUUUCCGGUCUGAUGAGUCCGUGUGGACGAAACAG [C3A A34U] here?
Answer: 0.358

Question: For ACCGGAUGUGCUUUCCGGUGUGAUGAGGCCGUGAGGACGAAACAG [C20G U28G], which self-cleavage is on record?
Answer: 0.323

Question: With ACCGGAGGCGCUUUCCGGUCUGAUGAGUCCGUGAGGACGAAACAG [U7G U9C] as the variant, how does the self-cleavage read?
Answer: 1.18

Question: Which self-cleavage does the source give for ACCGGAUGUGCUUUCCGGUCUGAUGAGACCGUGAGGACGAAGCAG [U28A A42G] here?
Answer: 0.25

Question: For ACCGGAUGUGCUUACCGGUCUGAGGAGUCCGUGAGGACGAAACAG [U14A U24G], which self-cleavage is on record?
Answer: 1.12

Question: With ACCGGUUGUGCUUUACGGUCUGAUGAGUCCGUGAGGACGAAACAG [A6U C15A] as the variant, how does the self-cleavage read?
Answer: 0.741

Question: Which self-cleavage does the source give for ACCGGAUGUGCUUUCAGGUCUGAUGAGUCCGUGAGGACGAGACAG [C16A A41G] here?
Answer: 0.352

Question: With AUCGGAUGUCCUUUCCGGUCUGAUGAGUCCGUGAGGACGAAACAG [C2U G10C] as the variant, how does the self-cleavage read?
Answer: 1.5

Question: Which self-cleavage does the source give for ACCGGAUGAGCUUUACGGUCUGAUGAGUCCGUGAGGACGAAACAG [U9A C15A] here?
Answer: 0.699

Question: For ACCGGAUGUGCUUUCCGGUCUGAUAAGUACGUGAGGACGAAACAG [G25A C29A], which self-cleavage is on record?
Answer: 0.348

Question: For ACCGGAUGUGCUUUCCGGUCUGAUGAGUACGUGAGGUCGAAACAG [C29A A37U], which self-cleavage is on record?
Answer: 0.703

Question: Which self-cleavage does the source give for ACAGGAUGUGCUUUCCGGUCUGAUGAGUCCGUGAGGACGGAACAG [C3A A40G] here?
Answer: 0.353

Question: For ACCGGAUUUGCUUUCCGGUCCGAUGAGUCCGUGAGGACGAAACAG [G8U U21C], which self-cleavage is on record?
Answer: 0.819

Question: With ACCGGAUGUGCUCUCCGGUCUGAUGAGUCAGUGAGGACGAAACAG [U13C C30A] as the variant, how does the self-cleavage read?
Answer: 1.54

Question: With ACCGGAUGUGCUUUCCGGUCUGUUGAGGCCGUGAGGACGAAACAG [A23U U28G] as the variant, how does the self-cleavage read?
Answer: 0.36

Question: With ACCGGAUGUGAUUUCCGGUCUGAUGAGUCCGUGAGGACGAAAAAG [C11A C43A] as the variant, how does the self-cleavage read?
Answer: 0.357

Question: For ACCGGAUGUGCUUUCCCGUCUGAUGAGUCCGUGAGGACGGAACAG [G17C A40G], which self-cleavage is on record?
Answer: 0.373

Question: For ACCGGAUGUGCUUUCCGGUCUGAUCAGUCCGUGAGGACGAAACCG [G25C A44C], which self-cleavage is on record?
Answer: 0.29

Question: For ACCGGAUGUGCUUUCGGGUCUGAUGAGUCCGUGAGGACGCAACAG [C16G A40C], which self-cleavage is on record?
Answer: 0.372

Question: For ACCGGAUGUGUUUUCCGGUCUGAUGAGUCCGUGAGGAAGAAACAG [C11U C38A], which self-cleavage is on record?
Answer: 0.511

Question: With ACCGGAUGUGCUUUCCGGUCUGAUGAGUCCGUGAAGGCGAAACAG [G35A A37G] as the variant, how does the self-cleavage read?
Answer: 0.58

Question: Which self-cleavage does the source give for ACCGGAUGUGCUCUCCGGUCUGAUGAGCCCGUGAGGACGAAACAG [U13C U28C] here?
Answer: 1.29

Question: For ACCGGAUGUGCUUUCCGGUCUGAUGAGUCCGCGGGGACGAAACAG [U32C A34G], which self-cleavage is on record?
Answer: 0.896

Question: For ACCGGAUGUGCUUUCCGGCCUGAUGAGUCCGUGAGGACGAAAUAG [U19C C43U], which self-cleavage is on record?
Answer: 0.376

Question: For ACCGGAUGUGCUUUCCGGUCUGAUGAGGCCGUGAGGACGAGACAG [U28G A41G], which self-cleavage is on record?
Answer: 0.421

Question: With ACCGGAUCUACUUUCCGGUCUGAUGAGUCCGUGAGGACGAAACAG [G8C G10A] as the variant, how does the self-cleavage read?
Answer: 1.47

Question: With ACCGGAUGUGCUGUCCGGUCUGAUGAGUCCAUGAGGACGAAACAG [U13G G31A] as the variant, how does the self-cleavage read?
Answer: 1.1

Question: Which self-cleavage does the source give for ACCUGAUGUGCUUUCCGGUCUGAUGAGUCCGUGAGGACGAAACCG [G4U A44C] here?
Answer: 0.401

Question: For ACCGGAUGUGCUUUCCGGUCUGGUGAGUCCGUGGGGACGAAACAG [A23G A34G], which self-cleavage is on record?
Answer: 0.35

Question: For ACCGUAUGUGCUUUCCGGUCUGAUGAGUCCGUGAGGACGUAACAG [G5U A40U], which self-cleavage is on record?
Answer: 0.319

Question: Which self-cleavage does the source give for ACCGGAUGUGCUUUCCGAUCUGAUGAGUCCGUGAAGACGAAACAG [G18A G35A] here?
Answer: 0.536

Question: Which self-cleavage does the source give for ACCAGAUGUGCUUUCCGGUCAGAUGAGUCCGUGAGGACGAAACAG [G4A U21A] here?
Answer: 0.312

Question: Which self-cleavage does the source give for ACCGGAUGUGCUUUCCGGUCUGAUAAGUCCGUGAGGACGAACCAG [G25A A42C] here?
Answer: 0.262

Question: Which self-cleavage does the source give for ACCGGAUGUGCUUUUCGGUCUGAUGAGUCCGUGAGGACGAGACAG [C15U A41G] here?
Answer: 0.355

Question: Which self-cleavage does the source give for ACCAGAUGUGCUUUCCGGUCUGAUGAGUCCGUGAGGACGACACAG [G4A A41C] here?
Answer: 0.34

Question: Which self-cleavage does the source give for ACCGGAUGUGCUUUCCGGUCUGAUGAGUCCGUGAGGACGAAACAU [G45U] here?
Answer: 0.898

Question: With ACCGGAUGUGCUUUCCGGUCUGAUGAGUGCGUGAGGACGAGACAG [C29G A41G] as the variant, how does the self-cleavage read?
Answer: 0.338

Question: Which self-cleavage does the source give for ACCGGAUGUGCUUACCGGUCUGAUGAGGCCGUGAGGACGAAACAG [U14A U28G] here?
Answer: 0.555

Question: Which self-cleavage does the source give for ACCGGAUGUGCUUGCCGGUAUGAUGAGUCCGUGAGGACGAAACAG [U14G C20A] here?
Answer: 0.481

Question: With ACCGGGUGUGCAUUCCGGUCUGAUGAGUCCGUGAGGACGAAACAG [A6G U12A] as the variant, how does the self-cleavage read?
Answer: 0.819

Question: For ACCUGAUGUGCCUUCCGGUCUGAUGAGUCCGUGAGGACGAAACAG [G4U U12C], which self-cleavage is on record?
Answer: 0.496

Question: Which self-cleavage does the source give for ACCGGAUGCGCUUUCCGGUCUGAUGAGUCCGUGAGGACGAAACUG [U9C A44U] here?
Answer: 0.661

Question: Which self-cleavage does the source give for ACCUGAUGUGCUUUCCGGUGUGAUGAGUCCGUGAGGACGAAACAG [G4U C20G] here?
Answer: 0.272

Question: Which self-cleavage does the source give for ACCGGAUGUGCUUUCCGGUCUCAUGAGUCCGUGAGGACGAAAAAG [G22C C43A] here?
Answer: 0.23

Question: For ACCGGAUGUGCUUUCCGGUCUGGUGAGUCCGCGAGGACGAAACAG [A23G U32C], which self-cleavage is on record?
Answer: 0.375

Question: Which self-cleavage does the source give for ACCGGAUGUGCUUUCCGGUCGGAUGAGUCCGUGAGGACGAAACAG [U21G] here?
Answer: 0.706

Question: Which self-cleavage does the source give for ACCGAAUGUGCUUUCUGGUCUGAUGAGUCCGUGAGGACGAAACAG [G5A C16U] here?
Answer: 1.54

Question: Which self-cleavage does the source give for ACCGGAUGUCCUUUCCGGUCUGAUGAGUCCGUGAGGACGAAAGAG [G10C C43G] here?
Answer: 0.381

Question: Which self-cleavage does the source give for ACCGGAUGUACUUUCCGGUCUGAUCAGUCCGUGAGGACGAAACAG [G10A G25C] here?
Answer: 0.362
